In publication PMC5122770, “Homodimerization of the Lymph Vessel Endothelial Receptor LYVE-1 through a Redox-labile Disulfide Is Critical for Hyaluronan Binding in Lymphatic Endothelium*^([image sbox.jpg])” (The Journal of Biological Chemistry, 2016):

Columns and labels:
[1] = biological target: the molecule itself; test: non-reducing SDS-PAGE with Western blot; freshly resected mouse ear skin and lymph node, minced and lysed with 5 mM NEM; non-reducing
[2] = biological target: the molecule itself; test: non-reducing SDS-PAGE with Western blot; mouse liver and lung tissue, minced and lysed with 5 mM NEM; non-reducing
[3] = biological target: the molecule itself; test: non-reducing SDS-PAGE with Western blot; CHO cell-derived soluble protein dissolved in LDS sample buffer with NEM; non-reducing
[4] = biological target: the molecule itself; test: non-reducing SDS-PAGE with Western blot; whole cell lysate of primary HDLEC lysed without NEM; non-reducing; polyclonal LYVE-1 antibody
[5] = biological target: the molecule itself; test: non-reducing SDS-PAGE with Western blot; cells lysed in LDS sample buffer with 5 mM NEM; non-reducing; polyclonal LYVE-1 antibody, densitometry (Licor Odyssey)

B1: mouse LYVE-1 (native receptor in mouse tissues) (receptor, mouse (endogenous in mouse tissues), UniProt Q8BHC0 24-318, looked up)
chain: ADLVQDLSISTCRIMGVALVGRNKNPQMNFTEANEACKMLGLTLASRDQVESAQKSGFETCSYGWVGEQFSVIPRIFSNPRCGKNGKGVLIWNAPSSQKFKAYCHNSSDTWVNSCIPEIVTTFYPVLDTQTPATEFSVSSSAYLASSPDSTTPVSATTRAPPLTSMARKTKKICITEVYTEPITMATETEAFVASGAAFKNEAAGFGGVPTALLVLALLFFGAAAVLAVCYVKRYVKAFPFTTKNQQKEMIETKVVKEEKADDVNANEESKKTIKNPEEAKSPPKTTVRCLEAEV
notes: LYVE-1, mouse, endogenous in tissue lysates; source: endogenous, lysates of freshly resected mouse ear skin, lymph node, liver and lung
With B1 the “stoichiometry N” value [1] was 2 and the “homodimer:monomer ratio” value [2] was ~2 homodimer:monomer.

B2: hLYVE-1 Δ238 His10 (soluble full ectodomain, wild type) (domain or fragment, human, UniProt Q9Y5Y7 20-238, looked up)
chain: LVQGSLRAEELSIQVSCRIMGITLVSKKANQQLNFTEAKEACRLLGLSLAGKDQVETALKASFETCSYGWVGDGFVVISRISPNPKCGKNGVGVLIWKVPVSRQFAAYCYNSSDTWTNSCIPEIITTKDPIFNTQTATQTTEFIVSDSTYSVASPYSTIPAPTTTPPAPASTSIPRRKKLICVTEVFMETSTMSTETEPFVENKAAFKNEAAGFGGVPT
notes: signal peptide in the construct (forward primer begins 14 nt before the start ATG); LYVE-1, human, full-length extracellular domain terminating after residue number 238; secreted from CHO cells; Recovered as a mixture of monomers and disulfide-linked dimers; the homodimer was separated by multiple rounds of size exclusion chromatography; also called soluble hLYVE-1 ectodomain; WT LYVE-1 His10; …
B2: binds [3].

B3: LYVE-1 (native receptor in primary human dermal lymphatic endothelial cells) (receptor, human (endogenous in HDLEC), UniProt Q9Y5Y7 20-322, looked up)
chain: LVQGSLRAEELSIQVSCRIMGITLVSKKANQQLNFTEAKEACRLLGLSLAGKDQVETALKASFETCSYGWVGDGFVVISRISPNPKCGKNGVGVLIWKVPVSRQFAAYCYNSSDTWTNSCIPEIITTKDPIFNTQTATQTTEFIVSDSTYSVASPYSTIPAPTTTPPAPASTSIPRRKKLICVTEVFMETSTMSTETEPFVENKAAFKNEAAGFGGVPTALLVLALLFFGAAAGLGFCYVKRYVKAFPFTNKNQQKEMIETKVVKEEKANDSNPNEESKKTDKNPEESKSPSKTTVRCLEAEV
notes: LYVE-1, human, endogenous receptor of primary human dermal lymphatic endothelial cells; glycosylated; also called lymphatic vessel endothelial receptor LYVE-1; hLYVE-1; source: endogenous, primary HDLEC whole cell lysate
With B3 the “stoichiometry N” value [4] was 2.

B4: full-length wild-type hLYVE-1 (in HEK 293T cells) (receptor, human, UniProt Q9Y5Y7 20-322, looked up)
chain: LVQGSLRAEELSIQVSCRIMGITLVSKKANQQLNFTEAKEACRLLGLSLAGKDQVETALKASFETCSYGWVGDGFVVISRISPNPKCGKNGVGVLIWKVPVSRQFAAYCYNSSDTWTNSCIPEIITTKDPIFNTQTATQTTEFIVSDSTYSVASPYSTIPAPTTTPPAPASTSIPRRKKLICVTEVFMETSTMSTETEPFVENKAAFKNEAAGFGGVPTALLVLALLFFGAAAGLGFCYVKRYVKAFPFTNKNQQKEMIETKVVKEEKANDSNPNEESKKTDKNPEESKSPSKTTVRCLEAEV
notes: also called wild-type receptor; source: HEK 293T, transfected, in lysate
B4 was tested, and the “dimer:monomer ratio” value [5] was 2 dimer:monomer.
